Experimental data from publication doi:10.1101/2021.07.15.452465.

Columns and labels:
[1] = target: A. nidulans CCAAT-binding complex, conserved core domains of HapB, HapC and HapE (HapB^231-293, HapC^42-132, HapE^47-164) (Aspergillus nidulans); assay: SPR
[2] = target: A. nidulans HapX^36-133M carrying C92K and C129S point mutations (Aspergillus nidulans); assay: crystal structure
[3] = target: A. nidulans CCAAT-binding complex, conserved core domains of HapB, HapC and HapE (HapB^231-293, HapC^42-132, HapE^47-164) (Aspergillus nidulans); assay: crystal structure
[4] = target: A. nidulans CCAAT-binding complex, conserved core domains of HapB, HapC and HapE (HapB^231-293, HapC^42-132, HapE^47-164) (Aspergillus nidulans); assay: SEC

fold increase of binding against HapX^36-133 [1] | Substance | stoichiometry N [2] | stoichiometry N (HapX subunits per CBC) [3] | stoichiometry N [4]
< 3.6 fold | A. nidulans HapX^36-141 (domain or fragment) | – | – | –
– | A. nidulans HapX^36-133M carrying C92K and C129S point mutations (domain or fragment) | 2 | 2 | 2 HapX per CBC
